Assay results as given in the supplement of paper PMC10126150.
± gives the standard deviation of the averaged measurements.

Test system: ATP
Assay: switch fluorescence ratio, 500 uM ATP over buffer (Cy3 cluster intensity, sum of 5 cycles each) (fold (ratio)); higher = stronger signal-on switching upon ATP binding; sequences stand for … in TCGTCGGCAGCGTCAGATGTGTATAAGAGACAGTTTTTTTTTTTTTTTTTTTTTTTTT…TC
Conditions: aptamer strand: ATP DNA aptamer (quencher-CACCTGGGGGAGTATTGCGGAGGAAGG + anchor), 100 nM annealed; ATP concentration: 500 uM
Outline: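 Cy3-labelled switching-strand clusters on a modified Illumina MiSeq flow-cell were annealed to 100 nM quencher-labelled ATP aptamer and imaged first in selection buffer, then after 15 min with 500 uM ATP at 22 °C. NaOH stripping and re-annealing separated each of five buffer/ATP cycles, and clusters outside 100-1000 RFU were excluded. The fluorescence ratio sums target-cycle Cy3 intensity over buffer-cycle Cy3 intensity per cluster and averages it per switch-domain sequence.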
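Also: ATP exposure 15 min at 22 °C before imaging.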

Sequence | switch fluorescence ratio
ATTATGGCGA | 1.04 ± 0.023
GGGGGGACCT | 1.06 ± 0.043
CGGGATACGG | 1.19 ± 0.065
TAGGTTTGCC | 1.08 ± 0.021
TCCGCGGAG | 1.15 ± 0.13
ATCGTTCGTG | 0.99714 ± 0.00096
CAAAAATGTT | 1.17 ± 0.19
CGGGTGTGTC | 1.045 ± 0.0042
AATAAATTAA | 0.977 ± 0.031
AAAATCGGTG | 1.01 ± 0.068
CCGGACGGAA | 1.12 ± 0.071
GGCATTTTTT | 1 ± 0.031
TTAGGGTATG | 1.03 ± 0.029
TTTTCTGTCC | 1.03 ± 0.012
GCTATTGGGG | 0.993 ± 0.014
CTGGGAGAAT | 1 ± 0.024
TGGTACCTTT | 1.04 ± 0.012
AGGGTGCTCG | 1.02 ± 0.047
TCCCAAAATG | 1.01 ± 0.039
TTATTTGCGC | 1.024 ± 0.0036
TAAGAATTCC | 1.08 ± 0.047
GGTAATGCTT | 1 ± 0.05
GTGGGATTTT | 0.986 ± 0.062
CTCGGCCACT | 2.26 ± 1.6
GGGGTGCCGG | 0.977 ± 0.092

Sequence | switch fluorescence ratio
TAGCTTATAA | 1.08 ± 0.024
GGTGGGAGCT | 1.01 ± 0.075
GGGAGGTCAT | 0.9731 ± 0.0065
GACTCTTGCG | 0.964 ± 0.029
TGGAAATACG | 1.06 ± 0.013
GGTGGGTGGA | 1 ± 0.021
CACTCGAGTC | 0.978 ± 0.011
CGGAGAAGGG | 0.974 ± 0.029
CATAAAGTAG | 1.02 ± 0.014
TTTAGGTGCA | 1.16 ± 0.14
TCAGGCTAAC | 1.01 ± 0.011
GACGAACCGG | 1.051 ± 0.0095
TTCCATGGCA | 1.037 ± 0.0056
TCATGTATTG | 1.01 ± 0.037
TGCTTGCAAA | 1.06 ± 0.069
AAATCGGTGT | 1 ± 0.037
GGTAGAGGGG | 0.9628 ± 0.0078
ATCTTGTGTC | 0.945 ± 0.02
ATCGTTGTAC | 1.18 ± 0.048
TTGTGAATTA | 0.982 ± 0.022
CGGGGTTTGT | 1.01 ± 0.011
GGGGGGGCGC | 1.02 ± 0.035
CCGTTTGTTT | 1.005 ± 0.005
GAGGCTGGGT | 0.988 ± 0.0081
CCTTGAGGGC | 1.34 ± 0.38

Sequence | switch fluorescence ratio
GCAGGGGAGG | 1 ± 0.036
GATCGGGGTT | 0.994 ± 0.036
ATAAGGAGAT | 0.9759 ± 0.0042
GGGAATAGAG | 0.99 ± 0.035
ACAAAACTC | 1.27 ± 0.37
CAAGATCATT | 1.008 ± 0.0036
AGTCAGGCGA | 1.01 ± 0.078
TATGTGTTGG | 0.992 ± 0.025
TGGGTTTAGC | 1 ± 0.043
CACCGGGCCT | 1.02 ± 0.016
TGGTTTGGCT | 1.03 ± 0.023
AAGAACTATG | 1.02 ± 0.034
AGGTGACGGT | 0.9809 ± 0.0085
TTACTTCGTA | 1.06 ± 0.07
TAGGGGGGAA | 1 ± 0.023
TCGGGAACGC | 1.04 ± 0.032
CATTGGTGGT | 0.989 ± 0.0039
CGATGTTTTG | 0.969 ± 0.031
TCCGTAGTGT | 2.12 ± 0.37
GCCTTGGTGC | 1.08 ± 0.018
AATGCGGGGT | 1.13 ± 0.16
AGGTAAACGT | 1.05 ± 0.083
TTTCTGGTAA | 1.08 ± 0.034
TCAGCGGTTT | 0.96 ± 0.055
CCGCGGTCGT | 1.3 ± 0.085

Sequence | switch fluorescence ratio
TCCTGGGGTC | 1.05 ± 0.043
GGGTATGGGT | 0.995 ± 0.043
GGGGTAAGCT | 0.998 ± 0.023
TCAATCCTTG | 0.999 ± 0.035
TTTGCGATTT | 1.15 ± 0.14
TTAGTAAAAT | 1.01 ± 0.017
TCCATAAAAA | 0.999 ± 0.022
TCTAGTGTGC | 0.9772 ± 0.0086
AGAGTAAGTG | 0.962 ± 0.025
CGAGGTGTAG | 0.98 ± 0.022
GTTGGTCTGG | 0.943 ± 0.048
CATGATCCGT | 1.008 ± 0.0093
TTGGAATGGA | 0.989 ± 0.029
TTCAAAAAAA | 0.97 ± 0.026
ATTCAGGTTT | 0.992 ± 0.026
TAACGGGCTG | 1.07 ± 0.054
TTTCTGGTTG | 1.022 ± 0.0078
CGCCATTACG | 1.65 ± 0.024
TCGCGGTGGC | 1 ± 0.029
AGCTCTGACG | 1.02 ± 0.024
TAAGAACATT | 1.03 ± 0.1
TTAATTAATA | 0.985 ± 0.013
GGACAAAACT | 1.08 ± 0.12
TAAGTTGACT | 1.06 ± 0.078
CTCATTTGAC | 1.032 ± 0.0056

Sequence | switch fluorescence ratio
GTAGAGAGGG | 0.992 ± 0.053
GTTGCGGGGG | 0.9937 ± 0.0015
GCGATTTTTA | 1.09 ± 0.089
AGAAACAGGA | 1.04 ± 0.04
GATTAGGGGG | 1.02 ± 0.043
ATTGATTGAC | 1.05 ± 0.043
TTCGGACCAA | 1.46 ± 0.096
GGCGCAGGAG | 1.092 ± 0.0082
TGGAAAGCCT | 1.05 ± 0.1
CGTACGGACG | 0.984 ± 0.021
GAGGGTTCGA | 0.987 ± 0.033
GTTATTTTAC | 1.01 ± 0.031
TTGGTGGGCA | 0.993 ± 0.038
GTTTTCTATG | 1 ± 0.021
TTCCTCTCGG | 1.17 ± 0.18
CTCATATGCA | 1 ± 0.029
TTGAAGGGGC | 0.997 ± 0.055
CGGGTAGGTA | 1 ± 0.012
TAAATGTGGA | 0.972 ± 0.03
TAGGGGGTCG | 0.971 ± 0.042
CGGTAATGTT | 1 ± 0.027
GGGGGCGGTC | 0.997 ± 0.023
TTATAATGGG | 0.988 ± 0.025
GTTTTCGGGG | 1.04 ± 0.029
AATCGGATTG | 1 ± 0.025

Sequence | switch fluorescence ratio
TCAAACTTAT | 1.05 ± 0.027
GACGGGGGCA | 0.99948 ± 0.00073
TAAAGGATAA | 0.9849 ± 0.0093
AGGGATTAA | 0.99 ± 0.054
TATCAAAGGT | 1.01 ± 0.025
GGCGGGCGCT | 0.993 ± 0.032
GACTTATTGG | 1.02 ± 0.032
TGGGAATGGC | 0.9555 ± 0.0094
AGATATGTGT | 0.998 ± 0.013
ATCGGGTCGG | 1.01 ± 0.03
TGGGTTTGGC | 1.02 ± 0.023
GGGGTCAGGA | 1.03 ± 0.029
TATTAAGCAG | 1.07 ± 0.038
CCGTTAGGCG | 0.987 ± 0.029
CAGGGGCAAT | 2.7 ± 0.12
TCGGTACATA | 1.037 ± 0.0066
AGTTGCTTGT | 1.01 ± 0.036
TGTTGGAGGA | 0.994 ± 0.028
CAGGTATTAC | 1.11 ± 0.026
GCAGGAAGAG | 1.0184 ± 0.00041
AAGCATGGGA | 1.01 ± 0.022
AGGGAATGTT | 0.972 ± 0.033
GGGGGGGTTA | 0.992 ± 0.025
TATTTTCTCA | 1.05 ± 0.049
GCATAAGATG | 1 ± 0.024

Sequence | switch fluorescence ratio
CGCGGTTGCG | 0.9668 ± 0.0054
GACAAAACTA | 1.16 ± 0.064
TACGACGGGC | 1.57 ± 0.5
ACGGGGTATT | 0.996 ± 0.028
GTAGGTATGG | 0.969 ± 0.015
GACAGCTTGG | 1.0064 ± 9.5e-05
GAGATGGTTT | 0.997 ± 0.024
GTTGATGGTG | 1 ± 0.039
TTTTGGGTGC | 1.08 ± 0.089
ATATTGCTCG | 1.05 ± 0.06
TAGGACTCGG | 0.989 ± 0.024
TTTTTGGTA | 0.985 ± 0.011
TATGTTTCCT | 1.02 ± 0.037
CTTTTGACTG | 1.05 ± 0.043
TCTGTCCG | 1.05 ± 0.14
ACACGGGTGC | 1.74 ± 0.062
CGTAGGTTTT | 1 ± 0.067
TATTAGTCAG | 1 ± 0.023
ACCTTTTTCA | 1.021 ± 0.0084
TAAGATGGTG | 0.981 ± 0.011
GGGGTTGGAC | 0.9851 ± 0.0016
AATTCGTCGG | 1.02 ± 0.045
GAGTGGGCGG | 0.996 ± 0.071
GACGTTCTGT | 1.03 ± 0.063
TCTATCATGA | 0.988 ± 0.013

Sequence | switch fluorescence ratio
CCCGTGCCAG | 1.02 ± 0.025
ATGGTCGTCT | 0.971 ± 0.027
TTTAGTTTG | 1 ± 0.037
GGATGTTAGT | 1 ± 0.008
AGTAAGGTGT | 1.13 ± 0.095
AATGGTGATT | 1.02 ± 0.046
AGTCGTTGAG | 1.02 ± 0.033
CCTTGACGGG | 1.18 ± 0.17
CGGAAAAAGC | 0.985 ± 0.028
TCTCGGCATT | 1.46 ± 0.23
CCTATTTTTT | 1.01 ± 0.034
GTTTTAAGGC | 1.01 ± 0.058
TTGGCAGGGG | 1.06 ± 0.047
CAGTATCGCG | 0.989 ± 0.005
AATAATGCGT | 0.994 ± 0.034
GTTTGCGACT | 0.998 ± 0.067
GGATTAGGGG | 0.998 ± 0.022
ATAATGTACA | 1.04 ± 0.011
TTGACCAAAA | 1.03 ± 0.055
AATAAGTTAA | 1 ± 0.026
GTTCAGTTTG | 1.03 ± 0.031
CAGTGGGGTA | 0.966 ± 0.012
CGGATGAGGC | 1.08 ± 0.018
GAATGCTGGT | 0.966 ± 0.023
GGGATTGGCA | 0.9798 ± 0.0092
